Assay results from US20230159659A1.

Experiments:
[1] = molecular target: Papain from papaya latex (Sigma) (papaya) (UniProt P00784)
[2] = molecular target: Papain from papaya latex (Sigma) (papaya) (UniProt P00784); remark: listed apart in the source

Substance	protease activity (% of papain alone), Protease Assay Kit [1] [%]	protease activity (OD), Protease Assay Kit [2] [OD]
Recombinant human Cystatin SA protein (recombinant CST2, Abcam)	64.3	
Recombinant Human Cystatin SN Protein (recombinant CST1, R&D Systems)		0.0005
